3 molecules from publication PMC6279937, “Biochemical Characterization of Aspergillus fumigatus AroH, a Putative Aromatic Amino Acid Aminotransferase” (Frontiers in Molecular Biosciences, 2018) can be followed below.

Series [1] addresses T1, AroH (Aspergillus fumigatus, UniProt Q4X0F7).
T1 construct: gene AFUA_2G13630; entire AroH cDNA with C-terminal 6xHis tag (kept) in pET22b, synthesized by GenScript, expressed in E. coli BL21(DE3); subunit mass 59480 Da; homodimer with 1 PLP per subunit
T1 sequence (Q4X0F7 1-526): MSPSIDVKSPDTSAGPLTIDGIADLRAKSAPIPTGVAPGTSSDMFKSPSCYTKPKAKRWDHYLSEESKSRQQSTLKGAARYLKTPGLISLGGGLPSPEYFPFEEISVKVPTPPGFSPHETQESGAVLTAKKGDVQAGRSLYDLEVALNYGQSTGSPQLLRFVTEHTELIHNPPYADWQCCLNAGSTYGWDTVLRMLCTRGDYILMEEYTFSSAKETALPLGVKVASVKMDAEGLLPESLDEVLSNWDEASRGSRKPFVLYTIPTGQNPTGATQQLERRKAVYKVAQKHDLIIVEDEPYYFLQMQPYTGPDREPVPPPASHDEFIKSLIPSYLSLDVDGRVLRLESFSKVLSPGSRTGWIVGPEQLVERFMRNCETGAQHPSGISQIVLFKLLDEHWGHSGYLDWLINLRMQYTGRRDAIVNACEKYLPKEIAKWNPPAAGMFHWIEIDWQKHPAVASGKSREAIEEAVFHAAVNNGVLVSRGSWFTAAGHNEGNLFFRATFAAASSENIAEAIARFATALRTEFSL
Put plainly: intrinsic fluorescence quenching of apoenzyme, tight-binding fit. The note with it: read-out: KD(PLP).

In series [2] the target is Aspergillus fumigatus AroH, recombinant, with a C-terminal 6xHis tag (Aspergillus fumigatus). Put plainly: SEC; 5 uM holoAroH on Superdex 200 10/300 GL, 0.1 M potassium phosphate pH 7.4, 0.5 ml/min; elution volume compared with molecular weight standards.
Substrate in series [3]: N[C@@H](CCC(=O)O)C(=O)O
Put plainly: purified protein. Type of series: biochemical, Aspergillus fumigatus. The note with it: co-substrate α-ketoadipate, 100 μM PLP, 66 mM potassium phosphate pH 7.4.

Substrate in series [4]: N[C@@H](CCCC(=O)O)C(=O)O
Put plainly: purified protein. It counts as biochemical, Aspergillus fumigatus. The note with it: co-substrate α-ketoglutarate, 100 μM PLP, 66 mM potassium phosphate pH 7.4.

Substrate in series [5]: N[C@@H](Cc1c[nH]c2ccccc12)C(=O)O
Put plainly: purified protein. Type of series: biochemical, Aspergillus fumigatus. The note with it: co-substrate 1 mM α-ketoglutarate, 100 μM PLP, 66 mM potassium phosphate pH 8.2, 25°C, pH 8.2.

Substrate in series [6]: N[C@@H](Cc1ccc(O)cc1)C(=O)O
Put plainly: purified protein. Type of series: biochemical, Aspergillus fumigatus. Particulars: co-substrate 1 mM α-ketoglutarate, 100 μM PLP, 66 mM potassium phosphate pH 8.2, 25°C, pH 8.2.

Substrate in series [7]: N[C@@H](Cc1ccccc1)C(=O)O
Put plainly: purified protein. It counts as biochemical, Aspergillus fumigatus. The note with it: co-substrate 1 mM α-ketoglutarate, 100 μM PLP, 66 mM potassium phosphate pH 8.2 (Figure 5 legend says pH 7.4), 25°C.

Substrate in series [8]: Nc1ccccc1C(=O)C[C@H](N)C(=O)O
Put plainly: purified protein. It counts as biochemical, Aspergillus fumigatus. Particulars: co-substrate α-ketoglutarate, 100 μM PLP, 66 mM potassium phosphate pH 7.4.

Substrate in series [9]: O=C(O)CCC(=O)C(=O)O
Put plainly: purified protein. Particulars: co-substrate 20 mM L-tryptophan, 100 μM PLP, 66 mM potassium phosphate pH 8.2, 25°C, pH 8.2. Type of series: biochemical, Aspergillus fumigatus.

Substrate in series [10]: O=C(O)CCCC(=O)C(=O)O
Put plainly: purified protein. Type of series: biochemical, Aspergillus fumigatus. The note with it: co-substrate L-glutamate, 100 μM PLP, 66 mM potassium phosphate pH 7.4.

As to `Cc1ncc(COP(=O)(O)O)c(C=O)c1O` [PLP], the Kd in series [1] stood at 100 ± 20 nM.
For the molecule “Aspergillus fumigatus AroH, recombinant, with a C-terminal 6xHis tag (enzyme)”, in [2], the stoichiometry N worked out at 2.

B1: AroH (Aspergillus fumigatus Af293) (protein)
chain: T1 sequence (Q4X0F7 1-526)
notes: entire AroH cDNA with C-terminal 6xHis tag (kept) in pET22b, synthesized by GenScript, expressed in E. coli BL21(DE3); subunit mass 59480 Da; homodimer with 1 PLP per subunit
Turning to B1, the Km was determined as 10000 ± 1000 µM in series [3]; 3300 ± 400 µM in series [4]; 2100 ± 300 µM in series [5]; 500 ± 100 µM in [6]; 1400 ± 200 µM in series [7]; 9000 ± 2000 µM in series [8]. In addition, the Km in series [9] worked out at 180 ± 20 µM; in [10], 140 ± 30 µM. Further, the kcat in [3] was found to be 10.3 ± 0.3 s⁻¹; in series [4], 13.2 ± 0.5 s⁻¹; in series [5], 3 ± 0.1 s⁻¹; in series [6], 4 ± 0.3 s⁻¹; in series [7], 7.4 ± 0.2 s⁻¹; in [8] it was 4.1 ± 0.4 s⁻¹. Moreover, the kcat was 2.5 ± 0.1 s⁻¹ in series [9] and 12.5 ± 1 s⁻¹ in series [10]. Further, the kcat/Km in [3] worked out at 960 ± 80 M⁻¹ s⁻¹; in series [4] it was 4000 ± 400 M⁻¹ s⁻¹; in series [5] it was 1400 ± 200 M⁻¹ s⁻¹; in series [6], 8000 ± 2000 M⁻¹ s⁻¹; in series [7], 5200 ± 600 M⁻¹ s⁻¹; in [8], 400 ± 100 M⁻¹ s⁻¹. For the same molecule, the values for the kcat/Km in series [9] and in [10] were 14000 ± 2000 M⁻¹ s⁻¹ and 90000 ± 20000 M⁻¹ s⁻¹, respectively.
